Laboratory results published in article PMC5352318, “Carcinoma-risk variant of EBNA1 deregulates Epstein-Barr Virus episomal latency”.

T1: B95-8 EBNA1 DBD (Epstein-Barr virus (strain B95-8)) (UniProt P03211)
T1 sequence: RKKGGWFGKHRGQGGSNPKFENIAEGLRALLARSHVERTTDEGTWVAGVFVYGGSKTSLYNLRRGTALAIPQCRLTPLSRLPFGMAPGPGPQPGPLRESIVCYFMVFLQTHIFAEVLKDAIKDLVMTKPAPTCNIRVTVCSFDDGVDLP


Assays:
[1] = target: T1, B95-8 EBNA1 DBD (Epstein-Barr virus (strain B95-8)); experiment: SPR; conditions: SPR (Biacore T200, SA chip): 20 mM Tris pH 8.0, 250 mM NaCl, 5 mM beta-mercaptoethanol, 1 mM MgCl2, EBNA1 0-200 nM; temperature not stated. Crystals: 0.2 M …
B95-8 EBNA1 DBD = B95-8 EBNA1 DBD (Epstein-Barr virus (strain B95-8), UniProt P03211 459-607); experiment: SPR; 1 mM Mg2+; range given for both proteins, exact value in Fig 2B; SPR (Biacore T200, SA chip): 20 mM Tris pH 8.0, 250 mM NaCl, 5 mM beta-mercaptoethanol, 1 mM MgCl2, EBNA1 0-200 nM; temperature not stated. Crystals: 0.2 M ammonium acetate, 0.15 M Mg acetate, 0.05 M Hepes pH 7.0, 5% PEG 4000; conditions: protein: recombinant; tags: His6-SUMO tag, cleaved; chain copies: 2; label: 5' biotin; self-complementary 18-mer

Molecule | Kd [1] | Kd (B95-8 EBNA1 DBD)
CGATAGCATATGCTTCCCGTTGGGTAACATATGCTATTG (double strand) [DS 3+4 (two EBNA1 dimer sites)] | 11.9 nM | 
FR single EBNA1 dimer site (SPR) (dsDNA) DNA 1: GGGAAGCATATGCTTCCC DNA 2: GGGAAGCATATGCTTCCC |  | ~16.5 nM
